Columns and labels:
[1] = molecular target: T1, human CEA on cells (MKN45, LOVO, NCI-H2122, LS174T, CT26/CEA) (human, UniProt P06731 35-685); experiment: flow cytometry on MKN45 cells, BGA5384 premixed with 1.00 ug/ml recombinant soluble CEA (competitor), anti-huFc-APC
T1 construct: Full-length human CEA, endogenous on tumour cell lines or transduced; also called native CEA on living cells; huCEA surface protein
T1 sequence: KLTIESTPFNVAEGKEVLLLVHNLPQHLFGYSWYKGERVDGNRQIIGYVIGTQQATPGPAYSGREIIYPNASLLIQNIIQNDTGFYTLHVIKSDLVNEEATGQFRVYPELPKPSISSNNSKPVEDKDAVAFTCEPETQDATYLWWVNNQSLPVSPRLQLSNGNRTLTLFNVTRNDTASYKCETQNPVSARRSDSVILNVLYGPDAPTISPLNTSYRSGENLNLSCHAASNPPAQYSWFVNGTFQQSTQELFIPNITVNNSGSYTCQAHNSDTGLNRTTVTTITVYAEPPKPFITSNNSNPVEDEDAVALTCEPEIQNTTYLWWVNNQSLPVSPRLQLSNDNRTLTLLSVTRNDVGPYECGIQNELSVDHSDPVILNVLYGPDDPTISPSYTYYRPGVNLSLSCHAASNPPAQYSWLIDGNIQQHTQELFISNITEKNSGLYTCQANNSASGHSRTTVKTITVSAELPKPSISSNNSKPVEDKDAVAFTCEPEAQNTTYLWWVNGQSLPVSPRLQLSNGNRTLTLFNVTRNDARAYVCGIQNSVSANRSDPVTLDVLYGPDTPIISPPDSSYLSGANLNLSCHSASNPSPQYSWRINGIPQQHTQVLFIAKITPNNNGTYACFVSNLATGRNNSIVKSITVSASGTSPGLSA
Protocol: The mixtures were then incubated with 2×10^5 CEA-expressing cells, such as MKN45 cells, for 30 minutes at 4° C. The cells were stained with secondary antibody anti-huFc-APC (Cat. No. 409320, BioLegend, USA) and analyzed by flow cytometry.

[2] = molecular target: T2, CEACAM1 (Cat. No. 10822-H08H, Sino Biological) (Homo sapiens (Human), UniProt P13688 35-428); experiment: antigen ELISA, antigen coated at 10 ug/ml, HRP anti-human Fc
T2 construct: Bought protein
T2 sequence: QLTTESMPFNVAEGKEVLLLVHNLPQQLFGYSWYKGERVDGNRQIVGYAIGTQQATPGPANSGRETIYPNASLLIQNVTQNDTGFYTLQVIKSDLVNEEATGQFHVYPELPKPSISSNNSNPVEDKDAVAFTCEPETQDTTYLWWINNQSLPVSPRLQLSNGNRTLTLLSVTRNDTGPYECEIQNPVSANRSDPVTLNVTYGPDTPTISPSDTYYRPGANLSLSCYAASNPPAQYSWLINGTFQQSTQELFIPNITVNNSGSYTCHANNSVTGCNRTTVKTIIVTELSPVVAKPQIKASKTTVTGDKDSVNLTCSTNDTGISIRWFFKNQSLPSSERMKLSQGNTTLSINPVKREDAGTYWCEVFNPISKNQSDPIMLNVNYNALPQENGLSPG
Protocol: (§1) Cell fluorescence was quantified using a flow cytometer (Guava easyCyte™ 8HT, Merck-Millipore, USA). For antigen ELISA, CEACAM1(SEQ ID NO:64) (Cat. No. 10822-H08H, Sino Biological, China), CHIM (SEQ ID NO:63), CEA (SEQ ID NO:55) or CEACAM6 (SEQ ID NO:57) were coated in 96-well plates at a concentration of 10 μg/ml overnight at 4° C.

[3] = molecular target: T3, recombinant human CEACAM6 (AA 1-320, C-terminal 6xHis) (human, UniProt P40199 35-320); experiment: as above
T3 sequence: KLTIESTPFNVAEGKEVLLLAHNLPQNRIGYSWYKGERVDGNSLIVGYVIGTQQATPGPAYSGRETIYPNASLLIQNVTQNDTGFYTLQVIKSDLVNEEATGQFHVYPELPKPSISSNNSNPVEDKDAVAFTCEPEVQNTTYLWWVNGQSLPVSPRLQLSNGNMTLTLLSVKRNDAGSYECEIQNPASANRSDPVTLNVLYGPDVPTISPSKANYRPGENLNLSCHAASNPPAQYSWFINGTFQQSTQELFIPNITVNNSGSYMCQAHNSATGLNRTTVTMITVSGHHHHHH
Protocol: as §1

[4] = molecular target: T4, cynoCEA (Cat.:CE5-C52H5, Acrobiosystem) (cyno); experiment: SPR (BIAcore T-200); antibody captured on anti-human IgG chip, antigen flowed (1.37-2150 nM)
T4 chain: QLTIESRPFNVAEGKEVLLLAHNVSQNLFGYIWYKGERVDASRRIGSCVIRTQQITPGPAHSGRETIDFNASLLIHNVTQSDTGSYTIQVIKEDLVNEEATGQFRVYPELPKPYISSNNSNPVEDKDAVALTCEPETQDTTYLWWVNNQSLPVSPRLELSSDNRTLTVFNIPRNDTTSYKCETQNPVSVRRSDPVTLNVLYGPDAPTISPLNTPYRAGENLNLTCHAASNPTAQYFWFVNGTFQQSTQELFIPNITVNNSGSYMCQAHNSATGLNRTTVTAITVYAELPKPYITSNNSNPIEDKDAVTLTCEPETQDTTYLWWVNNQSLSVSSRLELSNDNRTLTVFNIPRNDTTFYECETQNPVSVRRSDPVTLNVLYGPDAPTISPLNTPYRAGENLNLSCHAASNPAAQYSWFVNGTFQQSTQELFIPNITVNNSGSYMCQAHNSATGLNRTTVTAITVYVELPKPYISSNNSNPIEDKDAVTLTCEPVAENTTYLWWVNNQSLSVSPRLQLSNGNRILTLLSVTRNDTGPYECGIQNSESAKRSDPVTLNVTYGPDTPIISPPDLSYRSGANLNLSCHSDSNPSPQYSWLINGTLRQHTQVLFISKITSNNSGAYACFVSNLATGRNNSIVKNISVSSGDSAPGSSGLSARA

[5] = molecular target: T1, human CEA on cells (MKN45, LOVO, …); experiment: flow cytometry (MFI) on CEA-expressing MKN45 cells
Protocol: For flow cytometry, CEA-expressing MKN45 cells (10^5 cells/well) were incubated with various concentrations of purified affinity-matured antibodies, followed by binding with Alexa Fluor-647-labeled anti-hu IgG Fc antibody (Cat. No. 409320, BioLegend, USA). Cell fluorescence was quantified using a flow cytometer (Guava easyCyte™ 8HT, Merck-Millipore, USA).

B1: BGA5384 (antibody, human IgG1, kappa, V domains shown)
VH: QVQLVQSGAEVKKPGASVKVSCKASGYIFTSYYLHWVRQAPGQGLEWIGYINPQTGKTSYAQKFQGRVTMTRDTSTSTVYMELSSLRSEDTAVYYCAREYGNYNYPLDYWGQGTLVTVSS
VL: DIQMTQSPSSLSASVGDRVTITCRASENQYGYLAWYQQKPGKVPKLLIYNYKNLVEGVPSRFSGSGSGTDFTLTISSLQPEDVATYYCQHHLGTPYTFGQGTKVEIKR
notes: BGA6710 with Y57K in VH; human IgG1 format; also called BGA7592-1K
[1]
  EC50 (read off the curve): ~2 µg/mL
[2]
  binding result: no binding
[3]
  binding result: no binding
[4]
  Kd: 19.9 nM
[5]
  EC50: 2.92 µg/mL

Reference: patent US20250115677A1, “Anti-CEA Antibody Drug Conjugates and Methods of Use” (BeiGene Switzerland GmbH, priority 2022, published 2025)
